Experimental data published in US20210261648A1 (published 2021).

T1: FcγRIIa type H extracellular domain with C-terminal His tag (human, UniProt P12318 34-217)
T1 construct: extracellular domain; also called FcgRIIaH; FcγRIIa H
T1 sequence (looked up): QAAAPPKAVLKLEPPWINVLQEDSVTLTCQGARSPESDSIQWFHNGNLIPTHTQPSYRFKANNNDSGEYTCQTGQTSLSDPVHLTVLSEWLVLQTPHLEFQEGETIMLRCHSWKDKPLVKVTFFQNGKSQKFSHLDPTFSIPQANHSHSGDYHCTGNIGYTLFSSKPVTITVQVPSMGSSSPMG

T2: FcγRIIb extracellular domain with C-terminal His tag (human, UniProt P31994 43-217)
T2 construct: extracellular domain; also called FcgRIIb
T2 sequence (looked up): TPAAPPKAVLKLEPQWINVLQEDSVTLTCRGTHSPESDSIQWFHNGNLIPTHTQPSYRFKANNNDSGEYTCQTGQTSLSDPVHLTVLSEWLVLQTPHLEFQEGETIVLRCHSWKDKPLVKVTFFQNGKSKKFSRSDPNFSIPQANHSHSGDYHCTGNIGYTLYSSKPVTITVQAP

T3: FcγRIIb extracellular domain with C-terminal His tag (human, UniProt P31994 43-217)
T3 construct: extracellular domain; For crystals it was expressed with kifunensine and trimmed with Endo F1; also called FcgRIIb; FcγRIIb extracellular region
T3 sequence (looked up): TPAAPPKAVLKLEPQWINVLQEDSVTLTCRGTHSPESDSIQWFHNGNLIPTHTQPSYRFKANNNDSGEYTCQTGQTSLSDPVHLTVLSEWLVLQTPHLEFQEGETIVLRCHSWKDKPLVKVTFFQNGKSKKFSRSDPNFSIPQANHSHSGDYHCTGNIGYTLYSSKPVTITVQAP


Assays:
[1] = target: T4, FcγRIa extracellular domain with C-terminal His tag (human, UniProt P12314 16-292); assay: SPR, captured antibody, FcgR analyte
T4 construct: also called FcgRIa
T4 sequence (P12314 16-292): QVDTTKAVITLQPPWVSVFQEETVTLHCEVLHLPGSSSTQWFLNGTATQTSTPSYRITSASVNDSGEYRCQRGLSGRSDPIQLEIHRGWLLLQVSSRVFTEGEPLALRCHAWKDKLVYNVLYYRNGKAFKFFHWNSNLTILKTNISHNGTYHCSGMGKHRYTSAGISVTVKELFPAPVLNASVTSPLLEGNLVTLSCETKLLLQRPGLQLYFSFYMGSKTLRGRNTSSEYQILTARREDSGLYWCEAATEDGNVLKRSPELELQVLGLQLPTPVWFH
Procedure: (§1) Relative binding activities were calculated for the results of analyzing interactions with the respective FcγRs according to the following method.

[2] = target: T1, FcγRIIa type H extracellular domain …; assay: SPR, captured antibody, FcgR analyte
Procedure: as §1

[3] = target: T2, FcγRIIb extracellular domain with …; assay: SPR, captured antibody, FcgR analyte
Procedure: as §1

[4] = target: T3, FcγRIIb extracellular domain with …; assay: SPR (Biacore)

relative binding activity [1] | relative binding activity [2] | relative binding activity [3] | binding result [4] | fold increase of binding against IL6R-BP264/IL6R-L [4] [fold] | Binder
43 relative (IL6R-BF648/IL6R-L = 100) | 285 relative (IL6R-BF648/IL6R-L = 100) | 185 relative (IL6R-BF648/IL6R-L = 100) | – | – | IL6R-BP202/IL6R-L (antibody, human IgG1, kappa) heavy: QVQLQESGPGLVKPSETLSLTCAVSGHSISHDHAWSWVRQPPGEGLEWIGFISYSGITNYNPSLQGRVTISRDNSKNTLYLQMNSLRAEDTAVYYCARSLARTTAMDYWGEGTLVTVSSASTKGPSVFPLAPSSKSTSGGTAALGCLVKDYFPEPVTVSWNSGALTSGVHTFPAVLQSSGLYSLSSVVTVPSSSLGTQTYICNVNHKPSNTKVDKKVEPKSCDKTHTCPPCPAPELLGDDSVFLFPPKPKDTLMISRTPEVTCVVVDVSHEDGEVKFNWYVDGVEVHNAKTKPREEQYNSTYRVVSVLTVLHQDWLNGKEYKCKVSNAALPRPIEKTISKAKGQPREPQVYTLPPSRDELTKNQVSLTCLVKGFYPSDIAVEWESNGQPENNYKTTPPVLDSDGSFFLYSKLTVDKSRWQQGNVFSCSVMHEALHNHYTQESLSLSP light: not shown
47 relative (IL6R-BF648/IL6R-L = 100) | 446 relative (IL6R-BF648/IL6R-L = 100) | 179 relative (IL6R-BF648/IL6R-L = 100) | – | – | IL6R-BP185/IL6R-L (antibody, human IgG1, kappa) heavy: QVQLQESGPGLVKPSETLSLTCAVSGHSISHDHAWSWVRQPPGEGLEWIGFISYSGITNYNPSLQGRVTISRDNSKNTLYLQMNSLRAEDTAVYYCARSLARTTAMDYWGEGTLVTVSSASTKGPSVFPLAPSSKSTSGGTAALGCLVKDYFPEPVTVSWNSGALTSGVHTFPAVLQSSGLYSLSSVVTVPSSSLGTQTYICNVNHKPSNTKVDKKVEPKSCDKTHTCPPCPAPDYLGDDSVFLFPPKPKDTLMISRTPEVTCVVVDVSHEDGEVKFNWYVDGVEVHNAKTKPREEQYNSTYRVVSVLTVLHQDWLNGKEYKCKVSNAALPKPIEKTISKAKGQPREPQVYTLPPSRDELTKNQVSLTCLVKGFYPSDIAVEWESNGQPENNYKTTPPVLDSDGSFFLYSKLTVDKSRWQQGNVFSCSVMHEALHNHYTQESLSLSP light: not shown
117 relative (IL6R-BF648/IL6R-L = 100) | 135 relative (IL6R-BF648/IL6R-L = 100) | 173 relative (IL6R-BF648/IL6R-L = 100) | – | – | IL6R-BP212/IL6R-L (antibody, human IgG1, kappa) heavy: QVQLQESGPGLVKPSETLSLTCAVSGHSISHDHAWSWVRQPPGEGLEWIGFISYSGITNYNPSLQGRVTISRDNSKNTLYLQMNSLRAEDTAVYYCARSLARTTAMDYWGEGTLVTVSSASTKGPSVFPLAPSSKSTSGGTAALGCLVKDYFPEPVTVSWNSGALTSGVHTFPAVLQSSGLYSLSSVVTVPSSSLGTQTYICNVNHKPSNTKVDKKVEPKSCDKTHTCPPCPAPDLLGGDSVFLFPPKPKDTLMISRTPEVTCVVVDVSDEDGEVKFNWYVDGVEVHNAKTKPREEQDNSTYRVVSVLTVLHQDWLNGKEYKCKVSNKALPRPIEKTISKAKGQPREPQVYTLPPSRDELTKNQVSLTCLVKGFYPSDIAVEWESNGQPENNYKTTPPVLDSDGSFFLYSKLTVDKSRWQQGNVFSCSVMHEALHNHYTQESLSLSP light: not shown
– | – | – | binds | – | IL6R-BP448/IL6R-L (antibody, human IgG1, kappa, name in EU numbering) heavy: QVQLQESGPGLVKPSETLSLTCAVSGHSISHDHAWSWVRQPPGEGLEWIGFISYSGITNYNPSLQGRVTISRDNSKNTLYLQMNSLRAEDTAVYYCARSLARTTAMDYWGEGTLVTVSSASTKGPSVFPLAPSSKSTSGGTAALGCLVKDYFPEPVTVSWNSGALTSGVHTFPAVLQSSGLYSLSSVVTVPSSSLGTQTYICNVNHKPSNTKVDKKVEPKSCDKTHTCPPCPAPDLLGDDSVFLFPPKPKDTLMISRTPEVTCVVVDVAEEDGEVKFNWYVDGVEVHNAKTKPREEQYNSTYRVVSVLTVLHQDWLNGKEYKCKVSNKALPRPIEKTISKAKGQPREPQVYTLPPSRDELTKNQVSLTCLVKGFYPSDIAVEWESNGQPENNYKTTPDVLDSDGSFFLYSKLTVDKSRWQQGNVFSCSVMHEALHNHYTQESLSLSP light: not shown
– | – | – | binds | – | IL6R-BP453/IL6R-L (antibody, Printed 'P3961') heavy: QVQLQESGPGLVKPSETLSLTCAVSGHSISHDHAWSWVRQPPGEGLEWIGFISYSGITNYNPSLQGRVTISRDNSKNTLYLQMNSLRAEDTAVYYCARSLARTTAMDYWGEGTLVTVSSASTKGPSVFPLAPSSKSTSGGTAALGCLVKDYFPEPVTVSWNSGALTSGVHTFPAVLQSSGLYSLSSVVTVPSSSLGTQTYICNVNHKPSNTKVDKKVEPKSCDKTHTCPPCPAPDLLGDDSVFLFPPKPKDTLMISRTPEVTCVVVDVAEEDGEVKFNWYVDGVEVHNAKTKPREEQYNSTYRVVSVLTVLHQDWLNGKEYKCKVSNKALPRPIEKTISKAKGQPREPQVYTLPPSRDELTKNQVSLTCLVKGFYPSDIAVEWESNGQPENNYKTTPIVLDSDGSFFLYSKLTVDKSRWQQGNVFSCSVMHEALHNHYTQESLSLSP light: not shown
– | – | – | binds | – | IL6R-BP450/IL6R-L (antibody, human IgG1, kappa, name in EU numbering) heavy: QVQLQESGPGLVKPSETLSLTCAVSGHSISHDHAWSWVRQPPGEGLEWIGFISYSGITNYNPSLQGRVTISRDNSKNTLYLQMNSLRAEDTAVYYCARSLARTTAMDYWGEGTLVTVSSASTKGPSVFPLAPSSKSTSGGTAALGCLVKDYFPEPVTVSWNSGALTSGVHTFPAVLQSSGLYSLSSVVTVPSSSLGTQTYICNVNHKPSNTKVDKKVEPKSCDKTHTCPPCPAPDLLGDDSVFLFPPKPKDTLMISRTPEVTCVVVDVAEEDGEVKFNWYVDGVEVHNAKTKPREEQYNSTYRVVSVLTVLHQDWLNGKEYKCKVSNKALPRPIEKTISKAKGQPREPQVYTLPPSRDELTKNQVSLTCLVKGFYPSDIAVEWESNGQPENNYKTTPFVLDSDGSFFLYSKLTVDKSRWQQGNVFSCSVMHEALHNHYTQESLSLSP light: not shown
– | – | – | binds | – | IL6R-BP449/IL6R-L (antibody, human IgG1, kappa, name in EU numbering) heavy: QVQLQESGPGLVKPSETLSLTCAVSGHSISHDHAWSWVRQPPGEGLEWIGFISYSGITNYNPSLQGRVTISRDNSKNTLYLQMNSLRAEDTAVYYCARSLARTTAMDYWGEGTLVTVSSASTKGPSVFPLAPSSKSTSGGTAALGCLVKDYFPEPVTVSWNSGALTSGVHTFPAVLQSSGLYSLSSVVTVPSSSLGTQTYICNVNHKPSNTKVDKKVEPKSCDKTHTCPPCPAPDLLGDDSVFLFPPKPKDTLMISRTPEVTCVVVDVAEEDGEVKFNWYVDGVEVHNAKTKPREEQYNSTYRVVSVLTVLHQDWLNGKEYKCKVSNKALPRPIEKTISKAKGQPREPQVYTLPPSRDELTKNQVSLTCLVKGFYPSDIAVEWESNGQPENNYKTTPEVLDSDGSFFLYSKLTVDKSRWQQGNVFSCSVMHEALHNHYTQESLSLSP light: not shown
– | – | – | binds | – | IL6R-BP391/IL6R-L (antibody, human IgG1, kappa) heavy: QVQLQESGPGLVKPSETLSLTCAVSGHSISHDHAWSWVRQPPGEGLEWIGFISYSGITNYNPSLQGRVTISRDNSKNTLYLQMNSLRAEDTAVYYCARSLARTTAMDYWGEGTLVTVSSASTKGPSVFPLAPSSKSTSGGTAALGCLVKDYFPEPVTVSWNSGALTSGVHTFPAVLQSSGLYSLSSVVTVPSSSLGTQTYICNVNHKPSNTKVDKKVEPKSCDKTHTCPPCPAPDLLGDDSVFLFPPKPKDTLMISRTPEVTCVVVDVSDEDGEVKFNWYVDGVEVHNAKTKPREEQDNSTYRVVSVLTVLHQDWLNGKEYKCKVSNKALPRPTEKTISKAKGQPREPQVYTLPPSRDELTKNQVSLTCLVKGFYPSDIAVEWESNGQPENNYKTTPPVLDSDGSFFLYSKLTVDKSRWQQGNVFSCSVMHEALHNHYTQESLSLSP light: not shown
57 relative (IL6R-BF648/IL6R-L = 100) | 279 relative (IL6R-BF648/IL6R-L = 100) | 187 relative (IL6R-BF648/IL6R-L = 100) | – | – | IL6R-BP210/IL6R-L (antibody, human IgG1, kappa) heavy: QVQLQESGPGLVKPSETLSLTCAVSGHSISHDHAWSWVRQPPGEGLEWIGFISYSGITNYNPSLQGRVTISRDNSKNTLYLQMNSLRAEDTAVYYCARSLARTTAMDYWGEGTLVTVSSASTKGPSVFPLAPSSKSTSGGTAALGCLVKDYFPEPVTVSWNSGALTSGVHTFPAVLQSSGLYSLSSVVTVPSSSLGTQTYICNVNHKPSNTKVDKKVEPKSCDKTHTCPPCPAPELLGDDSVFLFPPKPKDTLMISRTPEVTCVVVDVSDEDGEVKFNWYVDGVEVHNAKTKPREEQYNSTYRVVSVLTVLHQDWLNGKEYKCKVSNKALPRPIEKTISKAKGQPREPQVYTLPPSRDELTKNQVSLTCLVKGFYPSDIAVEWESNGQPENNYKTTPPVLDSDGSFFLYSKLTVDKSRWQQGNVFSCSVMHEALHNHYTQESLSLSP light: not shown
36 relative (IL6R-BF648/IL6R-L = 100) | 285 relative (IL6R-BF648/IL6R-L = 100) | 174 relative (IL6R-BF648/IL6R-L = 100) | – | – | IL6R-BP214/IL6R-L (antibody, human IgG1, kappa) heavy: QVQLQESGPGLVKPSETLSLTCAVSGHSISHDHAWSWVRQPPGEGLEWIGFISYSGITNYNPSLQGRVTISRDNSKNTLYLQMNSLRAEDTAVYYCARSLARTTAMDYWGEGTLVTVSSASTKGPSVFPLAPSSKSTSGGTAALGCLVKDYFPEPVTVSWNSGALTSGVHTFPAVLQSSGLYSLSSVVTVPSSSLGTQTYICNVNHKPSNTKVDKKVEPKSCDKTHTCPPCPAPDYLGDDSVFLFPPKPKDTLMISRTPEVTCVVVDVSHEDPEVKFNWYVDGVEVHNAKTKPREEQDNSTYRVVSVLTVLHQDWLNGKEYKCKVSNDALPKPIEKTISKAKGQPREPQVYTLPPSRDELTKNQVSLTCLVKGFYPSDIAVEWESNGQPENNYKTTPPVLDSDGSFFLYSKLTVDKSRWQQGNVFSCSVMHEALHNHYTQESLSLSP light: not shown
– | – | – | – | 1.1 | IL6R-BP404/IL6R-L (antibody, human IgG1, kappa) heavy: QVQLQESGPGLVKPSETLSLTCAVSGHSISHDHAWSWVRQPPGEGLEWIGFISYSGITNYNPSLQGRVTISRDNSKNTLYLQMNSLRAEDTAVYYCARSLARTTAMDYWGEGTLVTVSSASTKGPSVFPLAPSSKSTSGGTAALGCLVKDYFPEPVTVSWNSGALTSGVHTFPAVLQSSGLYSLSSVVTVPSSSLGTQTYICNVNHKPSNTKVDKKVEPKSCDKTHTCPPCPAPDYLGDDSVFLFPPKPKDTLMISRTPEVTCVVVDVSEEDGEVKFNWYVDGVEVHNAKTKPREEQDNSTYRVVSVLTVLHQDWLNGKEYKCKVSNKALPRPIEKTISKAKGQPREPQVYTLPPSRDELTKNQVSLTCLVKGFYPSDIAVEWESNGQPENNYKTTPPVLDSDGSFFLYSKLTVDKSRWQQGNVFSCSVMHEALHNHYTQESLSLSP light: not shown
